Test results from the DeepSol protein solubility set.

Experiment: soluble on expression in E. coli; label from the status in PepcDB or PDB records

Question: Which “soluble on expression in E. coli” value does the source give for “MSLVPARVFSCTILVDFQTEDQDTMCNLLRVQWTITPRTAPQPWLACNGCGDLRAFQASDKIRLNANGRKLDAWLIYRCLICDKSWNRPIFERQNVCDISPPVLEALQCNDPQWIRAETFNLEALRRKSQRIDEFPDFDIEKRIRDEPTDWAAAEIDLTVPFPASIRLDRLLASELGLSRSMLQKLHDGGQIRAQSDLLRRRLRNGTRIVIECGDGLDRERFWKPAVRGLEGHHHHHH” here?
Answer: The value was “not soluble”.

Question: For “MSLVQWISPLDNSIVIASKVKILRNIKGIKFTKLLNEEEFNDLLSMVLGRLKEIDILDKCYVVKLKDGEEKIIDYYKENFGLIKYFENKDNLIFIMNKNGEFNILLNEEEHIGIECTNSGLSLREVYSKVDNLDDLIEEKIHYSFDSELGYLTSNIKNLGTALRAKVFIHLPLLSSNNLIRIIKNALKEEGITLKSIYNSGNKDVGNIYEVSNIKTLGMSEKDILDSLISITNKLILREKNQRDNLSKDEYIELKDDILRSLGVLRNTYSIDREGHHHHHH”, which “soluble on expression in E. coli” value is on record?
Answer: The value was “not soluble”.

Question: Which “soluble on expression in E. coli” value does the source give for “MSLYENNVKDTKDFYNDIGHISWSVAPSQHYHVGIFELEKDSMEDAQNRTVEYMARKVAASDLDVLLDIGCGSGLTAVQISKKENCKIVGINISEKQLAIGKKLISKEKINSRVKLMNMDAHQLNFKSGMFDGAYALESIMHMNREKVLSEVHRVLKNGAPFSLCDWYVKKSLTPVEKRFLETITLGKYITKEQYFSLYQTQNFMDIEIEEWSNKILPTYKYWTTITDEMKEKLPDHLLYVIEENSKVLSDIAIEKLGYLQVNGIKREGHHHHHH” here?
Answer: Its value is “soluble”.

Question: With “MSLYSENDISNSIKNGILYLEDPVNHEWYPHYFVLTSSKIYYSEETSSDQGNEDEEEPKEVSSSTELHSNEKWFHGKLGAGRDGRHIAERLLTEYCIETGAPDGSFLVRESETFVGDYTLSFWRNGKVQHCRIHSRQDAGTPKFFLTDNLVFDSLYDLITHYQQVPLRCNEFEMRLSEPVPQTNAHESKEWYHASLTRAQAEHMLMRVPRDGAFLVRKRNEPNSYAISFRAEGKIKHCRVQQEGQTVMLGNSEFDSLVDLISYYEKHPLYRKMKLRYPINEEALEKIGTAEPDYGALYEGRNPGFYVEANPMPTFKCAVKALFDYKAQREDELTFIKSAIIQNVEKQEGGWWRGDYGGKKQLWFPSNYVEEMVNEGHHHHHH” as the sequence, how does the “soluble on expression in E. coli” value read?
Answer: The value was “soluble”.

Question: With “MSMPETKTRSVALTPPLHTPRLLLLPLQLEDAPAMQSLFNHWEVVRYLTHHVPWPYPEGEALRYLREDALPAMQDGEEWHWSIRLRSQQDRLIGSACMMDEQDNNRGFWLSPAYQGLGLMSEVCVAIDRFWFETLKRPVLRVAKCALNEASCRLSQREGMRLVTVQESQFVCGTTQEQLWELTRDEWRANNGG” as the sequence, how does the “soluble on expression in E. coli” value read?
Answer: The value was “not soluble”.

Question: With “MSMPRYYEYRHVVGFEETNLVGNVYYVNYLRWQGRCREMFLYEHAPEILDELRADLKLFTLKAECEFFAELAPFDRLAVRMRLVELTQTQMELGFDYLRLGGDDLLVARGRQRIACMRGPNGRTEPVRVPAGLVRAFAPFRSATVGQ” as the sequence, how does the “soluble on expression in E. coli” value read?
Answer: The value was “soluble”.

Question: Which “soluble on expression in E. coli” value does the source give for “MSMSQSRAVQRSSSPNEDRGENQLVVYDLKGNDDTEEEVLPVQSQPLSSRTQCPSIGAFTVQCASCFKWRLMPSMQKYEEIREQLLENPFFCDTAREWKPDISCDVPADIYQDGTRLWAIDKPNISRPPAGWQRLLRIRGEGGTRFADVYYVAPSGKKLRSTVEVQKYLNDNSEYIGEGVKLSQFSFQIPKPLQDDYVRKRPARLLDSIDNTNTPVAKEANPLAWISPDDHISLQLGTPTESGLNNSHYQPSKKKKTSTLSIFGSNDELADR” here?
Answer: Its value is “soluble”.

Question: For “MSMYTTAQLLAANEKKFKFDPLFLRLFFRESYPFTTEKVYLSQIPGLVNMALYVSPIVSGEVIRSRGGSTSEFTPGYVKPKHEVNPQMTLRRLPDEDPQNLADPAYRRRRIIMQNMRDEELAIAQVEEMQAVSAVLKGKYTMTGEAFDPVEVDMGRSAANNITQSGGTEWSKRDKSTYDPTDDIEAYALNASGVVNIIVFDPKGWALFRSFKAVKEKLDTRRGSNSELETAVKDLGEAVSYKGMYGDTAIVVYSGQYVENDVKKNFLPDNTMVLGNTQARGLRTYGCIQDADAQREGINASARYPKNWVTTGDPAREFTMIQSAPLMLLADPDAFVSVQLA”, which “soluble on expression in E. coli” value is on record?
Answer: The value was “not soluble”.

Question: With “MSNDQIWDLLGHQIQIELDTGDVRRQESTTGHLMTRDPVSQSLLIAKIEENSTSIKSIEWIPSCSVKSIRKLKNTENPEIHVAIEKYFENDGIEGGSSGAEDSEEDIKKRAHRVVNYLKSHHLDVVEKPNGTYIIAGTVRFERPYHNANLYCDIPIVLKRILKLVEEI” as the sequence, how does the “soluble on expression in E. coli” value read?
Answer: Its value is “not soluble”.

Question: With “MSNKNKSYDYVIIGGGSAGSVLGNRLSEDKDKEVLVLEAGRSDYFWDLFIQMPAALMFPSGNKFYDWIYSTDEEPHMGGRKVAHARGKVLGGSSSINGMIYQRGNPMDYEGWAEPEGMETWDFAHCLPYFKKLEKTYGAAPYDKFRGHDGPIKLKRGPATNPLFQSFFDAGVEAGYHKTPDVNGFRQEGFGPFDSQVHRGRRMSASRAYLHPAMKRKNLTVETRAFVTEIHYEGRRATGVTYKKNGKLHTIDANEVILSGGAFNTPQLLQLSGIGDSEFLKSKGIEPRVHLPGVGENFEDHLEVYIQHKCKEPVSLQPSLDIKRMPFIGLQWIFTRTGAAASNHFEGGGFVRSNNEVDYPNLMFHFLPIAVRYDGQKAAVAHGYQVHVGPMYSNSRGSLKIKSKDPFEKPSIRFNYLSTEEDKKEWVEAIRVARNILSQKAMDPFNGGEISPGPEVQTDEEILDWVRRDGETALHPSCSAKMGPASDPMAVVDPLTMKVHGMENLRVVDASAMPRTTNGNIHAPVLMLAEKAADIIRGRKPLEPQYIDYYKHGVHDENEGAIEVKPYAK” as the sequence, how does the “soluble on expression in E. coli” value read?
Answer: Its value is “not soluble”.

Question: Which “soluble on expression in E. coli” value does the source give for “MSNNIVPSSVLPAGENLLTVPDYAERIGQPVTRVFDQIGEHKLICVLDNGIKKIPEAFLSEKGTTNKFVPGVIALLSDGGYTDQEIFKFLFTEDESLPGRPIDAIHGHLAREVMRRAQAMGF” here?
Answer: Its value is “soluble”.

Question: Which “soluble on expression in E. coli” value does the source give for “MSNNNLSVISLVSIGEHPTSRRPRRAEQDARAIELGLKLVGDNLQTLHAGELSDDASQQTALRSYLGMGLAEINLLEMPENADAVLVIAEYLKQQKIDIILTGVCAESGESSGMLPYLLAEQLGMAMVTSIAEILSIDEVNKQAEVLQALPRGQRRKLKVDLPFIASVDMAAALPRQSAFGPAMRGQFEATLGANFTDEESSTWQTADAKKRPKRLKIIKAKTAADRFKAATAKASGGGGKVVHGVEESAQAILDLLIEEGLV” here?
Answer: Its value is “not soluble”.

Question: Which “soluble on expression in E. coli” value does the source give for “MSNSVTNFEMSSVLPGKKPCQGKNNESQVVQTTPIKKHSVTFKNQSSLGVIDHYARLTNKSHSSVIAEVVDLAIPILEKCNRHNWSINEIKNDLLKFSIKESINRSRGKTEVTLEEYCSLIWKTNIMSPLKIPIADYFQLNANDEFMGKDEKTVIRERLSSLRENYDMEKAIYIYNQRHFDVKHQSVSGYSNIILIHRTTFEGYYFDAGQALLLSTSQLIIFGINEVLRRKGIVMPYPVVCWIDIYHVNEMVVMLPVLRKTDVSNRVNVPDDIIINPYSQESRT” here?
Answer: Its value is “soluble”.

Question: For “MSNTKNTSDSQESQQSSRKPQRSQATQTSQASQKSQSSQEPRRPKPMEVLREARAQLAELTGMTAESVSSFEQTEEGWVLEVEVLELERVPDTMSLMASYQVELDAEGQLTGYRRARRYERGRADSRGGRKLAAALEHHHHHH”, which “soluble on expression in E. coli” value is on record?
Answer: Its value is “soluble”.

Question: With “MSNYVIQADQQLLDALRAHYEGALSDRLPAGALFAVKRPDVVITAYRSGKVLFQGKAAEQEAAKWISGASASNETADHQPSALAAHQLGSLSAIGSDEVGTGDYFGPIVVAAAYVDRPHIAKIAALGVKDSKQLNDEAIKRIAPAIMETVPHAVTVLDNPQYNRWQRSGMPQTKMKALLHNRTLVKLVDAIAPAEPEAIIIDEFLKRDSYFRYLSDEDRIIRERVHCLPKAESVHVSVAAASIIARYVFLEEMEQLSRAVGLLLPKGAGAIVDEAAARIIRARGEEMLETCAKLHFANTKKALAIAKRRK” as the sequence, how does the “soluble on expression in E. coli” value read?
Answer: The value was “soluble”.

Question: For “MSPDEDLRLLYLRLIPQLAENRPEFQQAIADSPLFTAYMKLLKRQAELSPRILSALLSAISSIVRSHLPAYLKFQAKNGLTATEKLIQSTKDHKNAVKAGRMIVSFLYTLTDLQGIDEITEEIKNSILKIYTLLDGRSRFVDRADDSEETKEFYEETMKMIKFEIMQMHPDIITPQTRKLLEEHFKESNLRAGLMPIGGWPVIPKNEWPQPPQPPCHKANKNAEPKKEPEPAKKVAPKQETKVDQEAAELARKIQIEEDKTRKRHEIVARFSILDIYTKEELAEKLKLDAEMEMAEAQKVLKEIR”, which “soluble on expression in E. coli” value is on record?
Answer: Its value is “not soluble”.

Question: Which “soluble on expression in E. coli” value does the source give for “MSPIDEFTYIKQNKIVYDSNSLIQLYFPIMGSDAMALYDYFVHFFDDGIRRHKFSEVLNHLQYGMPRFQDALVMLTALDLLTVYQATGTYLVKLNQAMSNELFLSNPIYRRLLEKRIGEVAVAELDMKIPKNARDISKKFTDVFSDLGQPKQEVNRSKNVFDLESFKRLMMRDGLRFNNEKDDVLGIYSVSELYHLNWYDTYQLAKQTAINGMIAPQRMKVQQNEGQHIKDNQSFTNNEKVILRESKNDSALVFLEKIKRSRKAVTTSGEKTLLEDLAKMNFLDEVINVMVLYTLNKTKSANLNKAYIMKVANDFAFQNVMTAEDAVLKIRDFSDQKVRTKTETKKKQSNVPEWSNPDYKDEVSPEKEIELEQFKTDALKRLERLGKDGES” here?
Answer: The value was “not soluble”.

Question: Which “soluble on expression in E. coli” value does the source give for “MSPKSVVITGANRGIGLGLVQEFVKDKNIRHIIATARDVEKATDLKAISDPRVTALQLEVTCDKSMDTFVSKVEEIVGSDGLNLLVNNAGNAVDYPCKAKPNRALFAEQLNVNTTSVVILTQKLMPLLIKASSKVSGDQLSASRAAVVTISSGLASMTDFATGGHAPNAFAYRISKAAINMFGRALANDMKDDHILVASIGPGWVKTDMGGEKALLTVEQSTAELVASFNKLNNSHNGGFFQKDLTPYPF” here?
Answer: The value was “not soluble”.

Question: With “MSPQYDAIIVGGGHNGLTCGAYLARAGVKVLVVERQPMVGGAAVTGEIAPGYRSSLASYYQGLLQPKVILDLELQKYGFEVIPAAPTVFALEGGRTFTLWDDPEKFAAEIAKFSNVDGAAYAGYRAHMLKIAPHMKQLLWEVPVDPASGKIRDLKRLAGFVWRFRKVGPQFYDIYNLLTMSAWDYLSRWFTSDEVKLVLGFFAGGGGANSSLKTPGSAYMLARGIVRDGGTAAGPAGFMKGGMGAISEAIRRSGEAHGMEVRTACPVERILVENGRAVGVRLEGGEEIRSKIVIANATARTTFTKLLDPAELPEEFNRDIRNIRCESTVFRVNLALSALPEAPVFGQTNPQGSIVPQMTVAPNVAYMERAWHQAQGGEIAEAPFLIVKVPSMVDPTLAPEGHHIMNVFGGHAPYTLARGDWDSRREELWGRVLAVLKTQFPDIESRILHRQIMTPLDLERIFDLPNGHVHHGEISADQMFFRRPSPQFADYRSPVDRLYQASASVHPGGGVTGVPGHNAAKVILEDRRKWSLEHHHHHH” as the sequence, how does the “soluble on expression in E. coli” value read?
Answer: Its value is “soluble”.

Question: With “MSPRDVLDSIFAFPPNRDTLGGTSYLIVGNEGNILIDCPALDQTNLNFLRSHGGVRWLFLTHRGAIGRTAEIQQNYGCDILIQEQEAYLLPGLTVTTFTQEFAVTPTAKAIWTPGHSPGSSCLYYNHQGGVLFSGRHLLPNQKGEPVPLRTAKTFHWPRQIKSLQTILETLTPETLQYICPGANTGFLRGKRSIDTAYQRLASLDLKALLQTQPLILEHHHHHH” as the sequence, how does the “soluble on expression in E. coli” value read?
Answer: The value was “soluble”.

Question: With “MSPRRSAAEAQATRGRILGRAAEIASEEGLDGITIGRLAEELEMSKSGVHKHFGTKETLQISTLDKAFVDFWHRVVEPALAEPPGLRRLRAVCANSVGYLEEPLLPGGCLLTAALSEYDGRPGRVRDAVAEVWSRWREQLRADLTAAVDKGELPAGFDVEQALFEIVAAGLALNAAMQLQHDRTAADRARRAIERALAQS” as the sequence, how does the “soluble on expression in E. coli” value read?
Answer: The value was “soluble”.

Question: For “MSPVEESPEEFLARFAAHRVEVRLYPEPWGSPLLEVQTPAGFVYAMDRGAPPAPVGEARVLFHGLARKVARAQGKEGVFREGAAYRLVGTARPLEKGFYLLLARGLPVVVHWEGPMPEEAEVLLWPPLMLFRE”, which “soluble on expression in E. coli” value is on record?
Answer: Its value is “soluble”.

Question: With “MSQDNSEELIKVEKVEAFFYPIHGIPTMVLYLEDGREFKMFQIPPEIVIALNRLQEKRDYEELLRGDKRENIYDVLAFSSEIKDQLSKIINRVIINDVNEEYGVYIATVEFKFDGVIIEKQLIPSHAVFLAIVSNRPIYVKKNLVDEQEKQERKSGEDV” as the sequence, how does the “soluble on expression in E. coli” value read?
Answer: The value was “soluble”.
